The supplement of paper PMC7877785
± gives the uncertainty stated by the source.

Experiment: self-splicing fitness, log relative to wild type (ln ratio); higher = more splicing; Tetrahymena group I intron in knt gene, E. coli kanamycin selection, DiMSum; sequences stand for … in CUCUCU…GGAGGGAAAAGUUAUCAGGCAUGCACCUGGUAGCUAGUCUUUAAACCAAUAGAUUGCAUCGGUUUAAAAGGCAAGACCGUCAAAUUGCGGGAAAGGGGUCAACAGCCGUUCAGUACCAAGUCUCAGGGGAAACUUUGAGAUGGCCUUGCAAAGGGUAUGGUAAUAAGCUGACGGACAUGGUCCUAACCACGCAGCCAAGUCCUAAGUCAACAGAUCUUCUGUUGAUAUGGAUGCAGUUCACAGACUAAAUGUCGGUCGGGGAAGAUGUAUUCUUCUCAUAAGAUAUAGUCGGACCUCUCCUUAAUGGGAGCUAGCGGAUGAAGUGAUGCAACACUGGAGCCGCUGGGAACUAAUUUGUAUGCGAAAGUAUAUUGAUUAGUUUUGGAGUACUCGUGGUCG
Method in brief: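 A randomised library covering all eight P1ex-region intron nucleotides was built with the intron in the knt kanamycin-resistance gene on pET-22b(+) and held in E. coli BL21(DE3). Cells were grown overnight at 37°C or 30°C on LB agar, with or without 25 μg/mL kanamycin, plus 100 μg/mL carbenicillin, 50 μM IPTG and 0.2% rhamnose, and pooled colonies were amplicon-sequenced on an Illumina HiSeq 2500. DiMSum fitness is the error-weighted combination of wild-type-normalised replicate fold changes, kanamycin versus none.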

Row | Sequence | self-splicing fitness (ln) (30 °C) | self-splicing fitness (ln) (37 °C)
1 | AGGGAGCAAUAUUACGGUUG | -2.87 ± 0.19 | -2.76 ± 0.36
2 | AGGGAGCAAUAUUACGUAAU |  | -2.05 ± 0.26
3 | AGGGAGCAAUAUUACGUGUA | -3.24 ± 0.35 | -3.06 ± 0.31
4 | AGGGAGCAAUAUUACGUUGC |  | -1.37 ± 0.31
5 | AGGUAGCAAUAUUACGACUG | -0.0476 ± 0.015 | -0.0252 ± 0.034
6 | AGGUAGCAAUAUUACGAGAA | -2.95 ± 0.05 | -2.09 ± 0.047
7 | AGGUAGCAAUAUUACGAUCU | -0.913 ± 0.016 | -0.426 ± 0.034
8 | AGGUAGCAAUAUUACGCAGA | -2.681 ± 0.023 | -1.59 ± 0.034
9 | AGGUAGCAAUAUUACGCAUC | -3.221 ± 0.027 | -1.72 ± 0.038
10 | AGGUAGCAAUAUUACGCCAA | -1.19 ± 0.02 | -0.512 ± 0.035
11 | AGGUAGCAAUAUUACGCCAG | -1.22 ± 0.02 | -0.873 ± 0.037
12 | AGGUAGCAAUAUUACGCCGC | -3.58 ± 0.053 | -2.77 ± 0.067
13 | AGGUAGCAAUAUUACGCCGG | -1.09 ± 0.017 | -0.556 ± 0.034
14 | AGGUAGCAAUAUUACGCGAU | -3.466 ± 0.03 | -2.24 ± 0.039
15 | AGGUAGCAAUAUUACGCGCA | -0.305 ± 0.016 | 0.00281 ± 0.034
16 | AGGUAGCAAUAUUACGCGCU | -1.13 ± 0.017 | -0.72 ± 0.036
17 | AGGUAGCAAUAUUACGCGGC | -4.05 ± 0.044 | -2.93 ± 0.048
18 | AGGUAGCAAUAUUACGGAAA | -2.92 ± 0.033 | -1.96 ± 0.039
19 | AGGUAGCAAUAUUACGGACC | -0.613 ± 0.019 | -0.424 ± 0.037
20 | AGGUAGCAAUAUUACGGAUC | -1.721 ± 0.017 | -0.787 ± 0.034
21 | AGGUAGCAAUAUUACGGCAG | -1.25 ± 0.015 | -0.539 ± 0.033
22 | AGGUAGCAAUAUUACGGCGA | -0.281 ± 0.015 | -0.0476 ± 0.033

Row | Sequence | self-splicing fitness (ln) (30 °C) | self-splicing fitness (ln) (37 °C)
23 | AGGUAGCAAUAUUACGGGAC | -3.462 ± 0.028 | -2.15 ± 0.039
24 | AGGUAGCAAUAUUACGGUGU | -2.356 ± 0.015 | -1.01 ± 0.033
25 | AGGUAGCAAUAUUACGGUUG | -3.675 ± 0.026 | -2.4 ± 0.039
26 | AGGUAGCAAUAUUACGUACC | -1.99 ± 0.028 | -1.14 ± 0.042
27 | AGGUAGCAAUAUUACGUAUC | -3.25 ± 0.025 | -2.07 ± 0.038
28 | AGGUAGCAAUAUUACGUCGU | -1.761 ± 0.015 | -0.841 ± 0.034
29 | AGGUAGCAAUAUUACGUCUC | -3.938 ± 0.036 | -2.38 ± 0.047
30 | AGGUAGCAAUAUUACGUCUU | -0.915 ± 0.014 | -0.371 ± 0.033
31 | AGGUAGCAAUAUUACGUGCA | -0.829 ± 0.014 | -0.279 ± 0.033
32 | AGUAAGCAAUAUUACGAAAU | -3.49 ± 0.21 | -2.18 ± 0.17
33 | AGUAAGCAAUAUUACGACCA | -0.203 ± 0.12 | 0.184 ± 0.21
34 | AGUAAGCAAUAUUACGACUA | -0.283 ± 0.13 | -0.43 ± 0.13
35 | AGUAAGCAAUAUUACGACUU | -0.394 ± 0.068 | -0.58 ± 0.097
36 | AGUAAGCAAUAUUACGAUCA | 0.197 ± 0.16 | -0.44 ± 0.15
37 | AGUAAGCAAUAUUACGCAAC |  | -2.61 ± 0.38
38 | AGUAAGCAAUAUUACGCAAG | -2.99 ± 0.16 | -1.88 ± 0.19
39 | AGUAAGCAAUAUUACGCACG | -1.43 ± 0.1 | -0.219 ± 0.12
40 | AGUAAGCAAUAUUACGCCGC | -1.03 ± 0.25 | -2.95 ± 0.48
41 | AGUAAGCAAUAUUACGCCGU | -0.289 ± 0.17 | -2.06 ± 0.31
42 | AGUAAGCAAUAUUACGCCUG | -2.19 ± 0.12 | -1.15 ± 0.12
43 | AGUAAGCAAUAUUACGCGGG | -2.82 ± 0.29 | -2.13 ± 0.29
